B1: Pistol ribozyme (parent)
chain: GGGUCGUUGUUCCAUAAUCGCGUGGAUAUGGCACGCAAGUUUCUACCGGGCACCGUAAAUGUCCGACUGGAGCCGUUCGGGCGGCUAUAAACAGACCUCAGGCCCGAAGCGUGGCGGCACCUGCCGCCGGUGGUAAAAAAGAUCGGAAGAGCACACGUCU

Variants of: B1
Assay: aptazyme ON/OFF ratio, guanine; higher = stronger switching; co-transcriptional cleavage with and without guanine

In order of rising “aptazyme ON/OFF ratio” value:
1. GGGUCGUCACCUGAUAAUCGCGUGGAUAUGGCACGCAAGUUUCUACCGGGCACCGUAAAUGUCCGACUGGAGCCGUUCGGGCGGCUAUAAACAGACCUCAGGCCCGAAGCGUGGCGGCACCUGCCGCCGGUGGUAAAAAAGAUCGGAAGAGCACACGUCU [U8C G9A U10C U11C C12U C13G]  1.03
2. GGGUCGUCACCUCAUAAUCGCGUGGAUAUGGCACGCAAGUUUCUACCGGGCACCGUAAAUGUCCGACUGGAGCCGUUCGGGCGGCUAUAAACAGACCUCAGGCCCGAAGCGUGGCGGCACCUGCCGCCGGUGGUAAAAAAGAUCGGAAGAGCACACGUCU [U8C G9A U10C U11C C12U]  1.08
3. GGGUCGUCACCUUAUAAUCGCGUGGAUAUGGCACGCAAGUUUCUACCGGGCACCGUAAAUGUCCGACUGGAGCCGUUCGGGCGGCUAUAAACAGACCUCAGGCCCGAAGCGUGGCGGCACCUGCCGCCGGUGGUAAAAAAGAUCGGAAGAGCACACGUCU [U8C G9A U10C U11C C12U C13U]  1.09
4. GGGUCGUCACCAUAUAAUCGCGUGGAUAUGGCACGCAAGUUUCUACCGGGCACCGUAAAUGUCCGACUGGAGCCGUUCGGGCGGCUAUAAACAGACCUCAGGCCCGAAGCGUGGCGGCACCUGCCGCCGGUGGUAAAAAAGAUCGGAAGAGCACACGUCU [U8C G9A U10C U11C C12A C13U]  1.1
5. GGGUCGUCACCUAAUAAUCGCGUGGAUAUGGCACGCAAGUUUCUACCGGGCACCGUAAAUGUCCGACUGGAGCCGUUCGGGCGGCUAUAAACAGACCUCAGGCCCGAAGCGUGGCGGCACCUGCCGCCGGUGGUAAAAAAGAUCGGAAGAGCACACGUCU [U8C G9A U10C U11C C12U C13A]  1.1
6. GGGUCGUCACCAGAUAAUCGCGUGGAUAUGGCACGCAAGUUUCUACCGGGCACCGUAAAUGUCCGACUGGAGCCGUUCGGGCGGCUAUAAACAGACCUCAGGCCCGAAGCGUGGCGGCACCUGCCGCCGGUGGUAAAAAAGAUCGGAAGAGCACACGUCU [U8C G9A U10C U11C C12A C13G]  1.12
7. GGGUCGUCACCAAAUAAUCGCGUGGAUAUGGCACGCAAGUUUCUACCGGGCACCGUAAAUGUCCGACUGGAGCCGUUCGGGCGGCUAUAAACAGACCUCAGGCCCGAAGCGUGGCGGCACCUGCCGCCGGUGGUAAAAAAGAUCGGAAGAGCACACGUCU [U8C G9A U10C U11C C12A C13A]  1.13
8. GGGUCGUCACCGUAUAAUCGCGUGGAUAUGGCACGCAAGUUUCUACCGGGCACCGUAAAUGUCCGACUGGAGCCGUUCGGGCGGCUAUAAACAGACCUCAGGCCCGAAGCGUGGCGGCACCUGCCGCCGGUGGUAAAAAAGAUCGGAAGAGCACACGUCU [U8C G9A U10C U11C C12G C13U]  1.16
9. GGGUCGUCACCACAUAAUCGCGUGGAUAUGGCACGCAAGUUUCUACCGGGCACCGUAAAUGUCCGACUGGAGCCGUUCGGGCGGCUAUAAACAGACCUCAGGCCCGAAGCGUGGCGGCACCUGCCGCCGGUGGUAAAAAAGAUCGGAAGAGCACACGUCU [U8C G9A U10C U11C C12A]  1.17
10. GGGUCGUCACCGCAUAAUCGCGUGGAUAUGGCACGCAAGUUUCUACCGGGCACCGUAAAUGUCCGACUGGAGCCGUUCGGGCGGCUAUAAACAGACCUCAGGCCCGAAGCGUGGCGGCACCUGCCGCCGGUGGUAAAAAAGAUCGGAAGAGCACACGUCU [U8C G9A U10C U11C C12G]  1.18
11. GGGUCGUCACCGAAUAAUCGCGUGGAUAUGGCACGCAAGUUUCUACCGGGCACCGUAAAUGUCCGACUGGAGCCGUUCGGGCGGCUAUAAACAGACCUCAGGCCCGAAGCGUGGCGGCACCUGCCGCCGGUGGUAAAAAAGAUCGGAAGAGCACACGUCU [U8C G9A U10C U11C C12G C13A]  1.24
12. GGGUCGUCACAUUAUAAUCGCGUGGAUAUGGCACGCAAGUUUCUACCGGGCACCGUAAAUGUCCGACUGGAGCCGUUCGGGCGGCUAUAAACAGACCUCAGGCCCGAAGCGUGGCGGCACCUGCCGCCGGUGGUAAAAAAGAUCGGAAGAGCACACGUCU [U8C G9A U10C U11A C12U C13U]  1.28
13. GGGUCGUCACCGGAUAAUCGCGUGGAUAUGGCACGCAAGUUUCUACCGGGCACCGUAAAUGUCCGACUGGAGCCGUUCGGGCGGCUAUAAACAGACCUCAGGCCCGAAGCGUGGCGGCACCUGCCGCCGGUGGUAAAAAAGAUCGGAAGAGCACACGUCU [U8C G9A U10C U11C C12G C13G]  1.3
14. GGGUCGUCACAUGAUAAUCGCGUGGAUAUGGCACGCAAGUUUCUACCGGGCACCGUAAAUGUCCGACUGGAGCCGUUCGGGCGGCUAUAAACAGACCUCAGGCCCGAAGCGUGGCGGCACCUGCCGCCGGUGGUAAAAAAGAUCGGAAGAGCACACGUCU [U8C G9A U10C U11A C12U C13G]  1.33
15. GGGUCGUCACAGCAUAAUCGCGUGGAUAUGGCACGCAAGUUUCUACCGGGCACCGUAAAUGUCCGACUGGAGCCGUUCGGGCGGCUAUAAACAGACCUCAGGCCCGAAGCGUGGCGGCACCUGCCGCCGGUGGUAAAAAAGAUCGGAAGAGCACACGUCU [U8C G9A U10C U11A C12G]  1.37
16. GGGUCGUCACAUAAUAAUCGCGUGGAUAUGGCACGCAAGUUUCUACCGGGCACCGUAAAUGUCCGACUGGAGCCGUUCGGGCGGCUAUAAACAGACCUCAGGCCCGAAGCGUGGCGGCACCUGCCGCCGGUGGUAAAAAAGAUCGGAAGAGCACACGUCU [U8C G9A U10C U11A C12U C13A]  1.37
17. GGGUCGUCACGAAAUAAUCGCGUGGAUAUGGCACGCAAGUUUCUACCGGGCACCGUAAAUGUCCGACUGGAGCCGUUCGGGCGGCUAUAAACAGACCUCAGGCCCGAAGCGUGGCGGCACCUGCCGCCGGUGGUAAAAAAGAUCGGAAGAGCACACGUCU [U8C G9A U10C U11G C12A C13A]  1.44
18. GGGUCGUCACAUCAUAAUCGCGUGGAUAUGGCACGCAAGUUUCUACCGGGCACCGUAAAUGUCCGACUGGAGCCGUUCGGGCGGCUAUAAACAGACCUCAGGCCCGAAGCGUGGCGGCACCUGCCGCCGGUGGUAAAAAAGAUCGGAAGAGCACACGUCU [U8C G9A U10C U11A C12U]  1.55
